This passage reports stoichiometry N and Kd results from publication PMC9122589.

The target of data set [1] is BrxR ('BREX Regulator') from Acinetobacter sp. NEB394, untagged (Acinetobacter sp. NEB394). Put plainly: crystal structure; BrxR (125 uM) co-crystallized with 25 bp dsDNA target (150 uM), 2.3 Å, molecular replacement; 0.04 M citric acid, 20% PEG 3350, 60 mM Bis-Tris propane pH 6.4.
The target is the same in data set [2]. Put plainly: SEC; elution profile of purified protein on size exclusion chromatography; conditions of this run not stated. For orientation: In gel filtration, larger molecules generally elute earlier.
The target of data set [3] is BrxR (R47A) from Acinetobacter sp. NEB394 (Acinetobacter sp. NEB394). Described as above.
The target of data set [4] is BrxR (untagged WT) (Acinetobacter sp. NEB394) (UniProt A0A7H8SL41). Put plainly: EMSA. Particulars: EMSA: 20 mM Tris pH 7.9, 40 mM NaCl, 2.5% sucrose, 22 C, 30 min; 20 nM DNA (10 nM in Fig S6), 25-800 nM BrxR; 7% native gel in TBE.
Data set [5] addresses selenomethionyl (SeMet)-containing BrxR from Acinetobacter sp. NEB394 (Acinetobacter sp. NEB394). Put plainly: crystal structure; apo BrxR, SeMet-derivatized protein, SAD phasing, 2.3 Å; crystals from 10% PEG3000, 0.1 M HEPES pH 7.3, 2% benzamidine-HCl.

As a reminder, the stoichiometry N is a count of units in the complex or per binding partner. One may read the Kd as the concentration at which binding is half-saturated.

For the substance “BrxR ('BREX Regulator') from Acinetobacter sp. NEB394, untagged (natural protein)”, the stoichiometry N in data set [1] and in data set [2] was 2 each time.

In data set [3], “BrxR (R47A) from Acinetobacter sp. NEB394 (natural protein)” registered a stoichiometry N of 2.

For the substance “GCGGAGTCCATCCAAACATCGGGAGATTTTGATCAGATATGTTTAACCTGCCCTCACAATACCGTAAAAATAATTTACTGTATATTCATTGTAGGGTAGTCTTGATCACATTGTTTATTGACCGATTGTTCTATGACAGCAGACAAGCATGAAGTGCTTCTCAGAATGAGGGCGATTGAGTTACTGGCCTACTGGGAAGGGCGTTTG (double strand) [BREX upstream region -109/+98 (~200 bp)]”, the Kd in data set [4] is 100 nM. This counts as sub-micromolar.

The substance “selenomethionyl (SeMet)-containing BrxR from Acinetobacter sp. NEB394 (natural protein)” came in with a stoichiometry N in data set [5] of 2.
